B1: 1071 (protein, listed as Opitutus terrae)
chain: MKRMKIMKRRIDIFRSSLFLGAYPAMAAPFVQRSAWIWSAEGTHAAPAPESASPSHYQVRLFRRVFLLENGGREGRIAVSADSRYVLYCNGALIGRGPARGDVHHQFYDTYELAPYLHRGANVLAALVLDMSHVAHRPAALGAPGGVMTYAGGFLLEGGVVDLNDRMEILDTGAAGWKVTVDRSYRFQNDGTRFEGYHGYFEHRVSAEAPADWTAASFDDSAWPDATVLYRAERLENRRDPASPYGLVARMIPPMEVGRVARFAAGVLPGGGKPGAEWKRLAAGKGAVTIPARSTVRIILDAGRMTTAYPLVQTDGGPGAHIRLTYAEALRLPWSTVGARMLGRPQSLANLASHFADESSGWTFDARGHVTGWSDRWEPAGRPREVFEPWHWRSFRFVELEIVTAEEPMELTDLGYRFTAYPYRVEAEFACSDPRLERIWQTALHTMRLCSHETFVDCPHYEQMQYAGDTMITSKLAMLSTGDYALSRQALLQFDWSRIPDGLTQSRYPSRLLQVIPSWSLHWITSIRDYACCSGDLQTVNEVLPGVRVVLDWYRRHADPSGLPSRLPYWNITDWCSWWPRGVVPGADEGPTCIISAQFVQALAEAADLHGWVGQRHEQRRLATEVKTLRGVLRRRFWSRDEGLFFDKPGGPEVSQYGNAWAIVCGAATAADRKRMLARFPADPLLAPGSFFCWHAVFRALEAAGAYDRLPEFLGPWHEMVEAGLDTFVEENSYWRSLCHAWSAHPALEFLAGVLGVKALEPGFATVRVTPHRCGLREARGQVCTPRGPITVAWTWEKGRFRIRVTAPRELQVEIGLPDGSDHRMTHGRFETEVVIHEA
B2: 1033 (protein, listed as Pedobacter heparinus)
chain: MNRRTFIQNTSIATSSLVFFNQFESLAFSKSDQDLYTLFKNPPANYRPFVRWWWNGNKIQKKELFRQLTLLKDAGIGGVEINPISFPNKADDMGIKSLRWLSDEWIDLVKDTCNEARSKDMTCDLIVGSGWPFGSEDLKEEERAEVVLVFAEKVEGPMVYETTKYSIYNAIDPQVTDKNPLRSPILMDLKLSQDPIAAIATTIDFSNQINNDIIKIDVPEGKHCIYALVKFKSFAKVINGAPGASGSILNHLNKQAVESYLNRMSSTMQDRIGPLSNYLRALFTDSMELEGCNWCEDFPAEFKKRCGYDLMPYLPFILFKVGRLGAVVDEDYGAEKSQDLNVILKKVRFDFEYTKALLLRERFTEVYLKWCKELKVKSRAQAYGRGFFPLETSLGYDIPEGESWTTNYLRHKLGEEMSDEDYRRGRGYTMINKYVSSAAHLTGKRIVSCEEMTNTYLVFNATLELLKLGSDQSIMSGITHSVWHGFNYSPKEVAFPGWVQYGSYYSEKNNWWPYFKYLNDYKARLSSQLQHGDYYTDIAILPANYDLWANNGVQTDPFPEKLNVPYTSLLWEAINKNGGAADYITDMILTQSEIIKGKIVYGKKSFGVLFLPGVESLSELAMQKIEQFVKTGGKVICIEKYPAKGLGFLNWEQKDATIKDAVARLKQQFSDRFIFLDKPADNKFLEWYTPLIATHQLPSYLNISTPNRYFMQIRSVRDDGTEMFFFQNAHRYDAYQARVVFDRKKIKGKYAWVWDLDSGERFRLTLTNDTTFEYNFGPTESLLIIFDQIKNGEKWKPLLSSGKSTLNLDKVWDLELRNSLDGSVKHVNLPQVIDMKDDKELVNFTGTAIYRKKITLTDTKNLVINLGKVYGITQLYINKVQVGIKWYGKRFFDISKYVQTGTNDIEIHLVTTMGNYMKTLTDNEIAQYWVNRKGREQEIQSMGIVGPIEIYQQN
B3: 1059 (protein, listed as Solibacter usitatus)
chain: MVEMSVPVLRSSAFIALLAGLALGADPANITELQRGFQHPPDEARIMVRWWWFGPAVTKPELEREMRLMKQGGIGGFEVQPTYALELDNAEKGIKNLPYMSPEFLEALRFTGEKAKELGLRMDLTLGSGWPFGGPHIPVELASPRLRVARAAVTAGAAAINVPELQPSEKLIAAFLGNQELEAAGSQSFRLPPSAAGQVTFFISSHTRQTVKRPAVGAEGWVLNHYDRAAIEQHFKSVGEPMLNALAKTPPAAIFSDSLEVYNSDWTGDFLAQFAKRRGYDLKPYLPALAGDIGEKTGAIRNDWGQTLSELAEENYLKPLTAWAHQHNTKFRSQTYGIPPVTLSSYSLVDLPEGEGTQWRHFSSTRWATSASHLYNRPVTSSETWTWLHSPVFRATPLDMKAEADLHFLQGVNQLVAHGWPYSPPSVGEPGWRFYAAAVFNEHNPWWIVMPDIATYMQRVSWMLRQGKPVNDVAVYLPTHDAFAGFTLGRDSVNQAMEGILGPKLVPTILDAGYGFDFIDDGAIAAGGVPHKILIVPGAERIPLATYQKIEEYRRDGGKVFFTKRLPSLAPGLREEGDTAKIRELSAKHVVTGDDGLAGALHDALPADFTAPPEIGVVHRKLAYADVYFLANTSNHAVKGAAKFRASGMPAAWWDPVTGKSSKADLNLELAPYESRVLVFSRAGGAVMGQAMSLPEVDISSDWTITFPGEQPVKMATLRPWTDEENRKFYSGTATYERKVTATPAMAAAHVFLNFGEGTVADPASERRAPSGMRAWLESPVREAAQVFVNGKPAGAVWKAPYEVDVTGLLQAGENSIRVVVANLALNVLAKGPLPDYKELTAKYGEKFQAQDMQSVRALPGGMMGPVKLVSK
B4: 1074 (protein, listed as Actinoplanes sp.)
chain: MKGSFAVLAAALLLMPVSAPTAAAEPAVTLDGAHWIWYPEGDPATSAPAATRYLRRAFTVAASDIATAQLVVTGDDTIDVWVNGVRLAGSPRAADSWKRAVRVDLAGSLHPGSNTVALAARNTGGPAGVLGRLHAGSVDLVTDGSWRAATGVPENWADPAFSDVAWTTAKDLGAYGGGPWGAGVALPDPAAASPVSVTDLTVNRQADPVGVDTPRFGWRLAAGTGGQMQGRYQLTVGSTAGAADVWDSGIVASTASRDIGYSGPALGANRTYFWRVRVWDAQGRPSAWSAGARFDTGIALTAAFVGAPPAGDLSGADWIWYPEGDPATSAPAATRYFRRTVTLATSTTLVVAGDDTADVWVDGTQISASPRVTDSWKTAATVTVPAGTRTIAIAASNTTVGPAGVIAKLGGIVTDGSWRSATAAPGGWQQPGFDDSGWLAAKVLAAYGSGPWGGQVLVPAAAPYLRKGFAVTRPVARARLFATALGLHDTYLNGARVGTERLAPGWTDYTKRVQYRGYDVTAALRLGDNALAAQIGHGWYSGNIGFAGSRRYGTQPWYAAQLIIEYTDGTSATVQTDGSWRTAPGNILGDDLYAGETQDARLIRSGWNTAGFDDSDWVPVTVQNGARPTLVPQVDPGVTVQQELRPVAVTQPKPGVFIADLGQNFTGWDRLRVSGPAGTTVTLRHGEILNADGTLYTANLRAAQATDRFTLAGTGTETFEPRFTVHGYRYVEITGFPGTPDADSLTGLAAWTGGAATGMFTSSDSTLNQVQRAILWGARSNLLSIPTDCPQRDERLGWTGDIAAFVATSTFNFDTYGLLAKFATDLTDAQHSDGAFTDVAPDVLGGAGKAGWGDAGVIVPYTVWQRFGDLAPADRNFAAMARWVDYLRSTAGADLIRNQDTYGDWLNVDDGTGNDLTSTAFFGWSARLVSRMAAATGRTAQAATYGTLADQIAAAFTGRFVHADNTVGTGSETGYVLALAFGLVPGDRVQAVADRLAAKVASRNGHLSVGFMGVENLLPVLADHGHADVAYRILQQPDYPGWGYMIARGATTIWERWDGIRPDGSLQDPGMNSFNHYGLGSVGDWLYREVGGVAPAAPGYAQVLLAPKPGGSLTSASAELTTTFGRVRSAWSRSGSAVTLQVVVATGTTATVRVPGTAVTSAPAEAVPVGGTSYVVGAGSYTFTSTL
B5: 1067 (protein, listed as Pedobacter heparinus)
chain: MKLIPNFLKTSMQQTVLLLLLALVCCADTVLAQQSGKASWIWYPGDLDIWVSNKMQNRRTERGAFLPPFWKMDSHYVLVEFHKEFNLANAEEVNLYVEGQYNVKIDGQAFSGYPKKITVPAGKHKLSLKVYGQDKVPAILVQGKTVVSDESWLATFEDKEWIDASGKASDKSGTTFVSAASWNLTDPLSPPSRFKLATTPMAAVKTDKVNNGFVADFGKETFGFIKLHGLKGKGKLHIYYGESKEEALSADHCETLDLLEIDLKGKQDSVIELSKAFRYVNCQPEGNVTLDKVSMLYEYAPVTEKGNFRCSDEQINKIYDISKYTFHLNTREFFIDGIKRDRWVWSGDAYQSYLMNYYSFNESPIVKRTLLAQRGKDPVTAHINTIMDYSFYWFLGIYDYYQYSGDQKFVQDIYPRMKSLMDYVLGRRNKDGLLEWMPGDWIFIDWADKLSKDGEVSFEQLLFCRSLETMALCADMAKDTEAAANYKKLAADLKARIFKLYWDENKHALVHSRINGKPTDNVTRYANMFGIFFDYFSPSQKQEVKQHVLMNNKINKITTPYMRFYELEALCAMGEQSYVLKQMKDYWGGMLELGATSFWEEYNRDKKGVEHLAMYGRPFGKSLCHAWGASPIYLLGKYYLGVKPLSAGYETYVVEPSLGGLEWMEGKVPTPSGEISLYCSKKEIRIKADEGSGVLRFKSVSKPVVKGGKVVEVGKRTYELKLMKGVQYTVNYQK

Experiment: Experiment 6-1: screening of rhamnosidases for derhamnosylation of saponins in treated bark extract (2%), desglucosyl-QS-17 2134 to QS-21 1988 (PAR %)
Format: biochemical, Quillaja saponaria
Settings: TBE 2%, pH 7.5, 30 degC, 18 h; TIC peak area ratio percent, LCMS/MS; negative controls 2.719, 2.158

Molecule | Peak75 (PAR %)
B1 | 2.574%
B2 | 2.521%
B3 | 2.534%
B4 | 2.312%
B5 | 2.231%

Experiment: Experiment 6-1: screening of rhamnosidases for derhamnosylation of saponins in treated bark extract (2%), QS-17 2296 to QS-18 2150 (PAR %)
Format: biochemical, Quillaja saponaria
Settings: TBE 2%, pH 7.5, 30 degC, 18 h; TIC peak area ratio percent of rhamnosylated starting saponin to derhamnosylated product, LCMS/MS; negative controls 4.876, 5.225

Molecule | QS-17 (PAR %)
B1 | 4.587%
B2 | 4.485%
B3 | 4.613%
B4 | 4.443%
B5 | 4.455%

Experiment: Experiment 6-1: specificity of rhamnosidases towards other rhamnose residues (C3 saccharide rhamnose, C28 saccharide rhamnose)
Format: biochemical, Quillaja saponaria
Settings: TBE 2%, pH 7.5, 30 degC, 18 h; LCMS/MS; negative controls 0.18, 0.17

Molecule | ratio PP/QS-21
B1 | 0.17
B2 | 0.16
B3 | 0.16
B4 | 0.18
B5 | 0.17

Experiment: Experiment 6-1: screening of rhamnosidases for derhamnosylation of saponins in treated bark extract (2%), QS-17 2310 to QS-18 2164 (PAR %)
Format: biochemical, Quillaja saponaria
Settings: TBE 2%, pH 7.5, 30 degC, 18 h; TIC peak area ratio percent, LCMS/MS; negative controls 3.061, 2.429

Molecule | Peak57 (PAR %)
B1 | 2.650%
B2 | 2.927%
B3 | 2.956%
B4 | 1.681%
B5 | 2.852%
